# Measured values reported in the supplement of paper PMC10065799, “High-throughput profiling of sequence recognition by tyrosine kinases and SH2 domains using bacterial peptide display” (eLife, 2023).
# System: AncSZ;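 also: 11-residue human phosphosite peptides and single-mutation variants displayed on the E. coli surface, counted by deep sequencing, each peptide's frequency after selection divided by its frequency in the unselected input library; frequency after pTyr selection over input frequency; kinase dosed for 20-30% of maximal phosphorylation in three min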
# Test: phosphorylation enrichment, bacterial display (enrichment ratio); higher = better substrate or ligand; peptides without Tyr show the background
# 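For SH2 binding enrichment of the phosphorylated peptide, bacterial display in this document: peptide library displayed on the E. coli surface as eCPX fusions, selected cells deep-sequenced, score is each peptide's frequency after selection divided by its frequency in the input.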
row,Sequence,phosphorylation enrichment
1,SLFPGYNFRFA [P2RX7_Y291_YF],0.844
2,SVTCTYSPALS [TP53_Y126_N131S],2.15
3,LQLLGHRPVYS [CHST6_Y358_Y358H],0.615
4,TTKAKYKTPIY [PLD2_Y573_T577I],0.823
5,DDDPEYRKFLE [UPF3B_Y160],1.32
6,NFHRGYHLQVL [CD200R1L_Y138],0.755
7,SKAYAYVHFDS [PABPC5_Y149_G146A],0.967
8,PTQLPYDHKWK [KIT_Y578_E583K],0.725
9,KNKNRSKNILP [PTPN11_Y279_Y279S],0.732
10,ARMTNCGLPRF [TSPAN12_Y138_Y138C_YF],0.58
11,TRTEAYAVSSF,0.58
12,SHLEDYPFDAE [AKR1B10_Y310_N313D],0.986
13,YVGGFYGGCNE [CTSC_Y352],1.17
14,EEGESYVCSSD [DCX_Y125],1.31
15,EERNPYYSSAR [MCCC2_Y520_G517R],0.942
16,GMEIVYVYVKK [DNAI2_Y5],1.24
17,EYKDAYTFAAD [BRDT_Y335_K336T],1.15

row,Sequence,phosphorylation enrichment
1,PRAGVYPEKDQ [DNM2_Y626_L621P],1.16
2,MSDVPYVMNRG [ACAT1_Y161_N158D],0.669
3,NQKGKYFNVER [ANAPC4_Y469_R465Q],0.614
4,STTIHYNYMCN [TP53_Y234_C229S],1
5,FADIAYSYRHG [PAH_Y166_N167S],0.726
6,FSGKAYADEEQ [CRIM1_Y826_R831Q],1.12
7,DTLASYLDKVR [KRT12_Y139_R135T],0.552
8,KDHPDYEFQPR [SOX9_Y172_K173E_YF],1.81
9,ERDYTYDELLN [EIF2S2_Y176_E177D],1.17
10,EQLQSYQAEII [KRT33A_Y268],1.12
11,EARRVYRDIIH [ALDH5A1_Y175_G176R],0.549
12,LLVVVYKYRCY [PSEN1_Y154_L153V],2
13,LSGVIYVILGK [PMP22_Y153_R157G],1.73
14,KLFFHYNPKLC [INSR_Y457],1.25
15,LAVNPYGPPDL,1.36
16,AAVDTYCRHNF [HLA-DRB1_Y107_YF],0.794

# Target: SHP2-C SH2
# Test: SH2 binding enrichment of the phosphorylated peptide, bacterial display (enrichment ratio); higher = better substrate or ligand; peptides without Tyr show the background
row,Sequence,SH2 binding enrichment
1,SLFPGYNFRFA [P2RX7_Y291_YF],0.962
2,SVTCTYSPALS [TP53_Y126_N131S],0.44
3,LQLLGHRPVYS [CHST6_Y358_Y358H],0.935
4,TTKAKYKTPIY [PLD2_Y573_T577I],0.775
5,DDDPEYRKFLE [UPF3B_Y160],0.542
6,NFHRGYHLQVL [CD200R1L_Y138],0.827
7,SKAYAYVHFDS [PABPC5_Y149_G146A],14.2
8,PTQLPYDHKWK [KIT_Y578_E583K],0.512
9,KNKNRSKNILP [PTPN11_Y279_Y279S],0.39
10,ARMTNCGLPRF [TSPAN12_Y138_Y138C_YF],1
11,TRTEAYAVSSF,0.608
12,SHLEDYPFDAE [AKR1B10_Y310_N313D],0.842
13,YVGGFYGGCNE [CTSC_Y352],0.651
14,EEGESYVCSSD [DCX_Y125],0.839
15,EERNPYYSSAR [MCCC2_Y520_G517R],0.875
16,GMEIVYVYVKK [DNAI2_Y5],0.722
17,EYKDAYTFAAD [BRDT_Y335_K336T],0.727

row,Sequence,SH2 binding enrichment
1,PRAGVYPEKDQ [DNM2_Y626_L621P],0.917
2,MSDVPYVMNRG [ACAT1_Y161_N158D],0.617
3,NQKGKYFNVER [ANAPC4_Y469_R465Q],1.03
4,STTIHYNYMCN [TP53_Y234_C229S],0.845
5,FADIAYSYRHG [PAH_Y166_N167S],0.784
6,FSGKAYADEEQ [CRIM1_Y826_R831Q],0.8
7,DTLASYLDKVR [KRT12_Y139_R135T],0.73
8,KDHPDYEFQPR [SOX9_Y172_K173E_YF],0.73
9,ERDYTYDELLN [EIF2S2_Y176_E177D],0.688
10,EQLQSYQAEII [KRT33A_Y268],0.683
11,EARRVYRDIIH [ALDH5A1_Y175_G176R],0.75
12,LLVVVYKYRCY [PSEN1_Y154_L153V],2.37
13,LSGVIYVILGK [PMP22_Y153_R157G],0.801
14,KLFFHYNPKLC [INSR_Y457],1.18
15,LAVNPYGPPDL,0.873
16,AAVDTYCRHNF [HLA-DRB1_Y107_YF],0.593

# Target: c-Src SH2
# Test: as above
row,Sequence,SH2 binding enrichment
1,SLFPGYNFRFA [P2RX7_Y291_YF],0.819
2,SVTCTYSPALS [TP53_Y126_N131S],0.468
3,LQLLGHRPVYS [CHST6_Y358_Y358H],0.733
4,TTKAKYKTPIY [PLD2_Y573_T577I],0.793
5,DDDPEYRKFLE [UPF3B_Y160],0.547
6,NFHRGYHLQVL [CD200R1L_Y138],0.54
7,SKAYAYVHFDS [PABPC5_Y149_G146A],4.66
8,PTQLPYDHKWK [KIT_Y578_E583K],0.437
9,KNKNRSKNILP [PTPN11_Y279_Y279S],0.374
10,ARMTNCGLPRF [TSPAN12_Y138_Y138C_YF],0.74
11,TRTEAYAVSSF,1.65
12,SHLEDYPFDAE [AKR1B10_Y310_N313D],0.471
13,YVGGFYGGCNE [CTSC_Y352],1.23
14,EEGESYVCSSD [DCX_Y125],0.793
15,EERNPYYSSAR [MCCC2_Y520_G517R],2.83
16,GMEIVYVYVKK [DNAI2_Y5],0.474
17,EYKDAYTFAAD [BRDT_Y335_K336T],0.61

row,Sequence,SH2 binding enrichment
1,PRAGVYPEKDQ [DNM2_Y626_L621P],0.403
2,MSDVPYVMNRG [ACAT1_Y161_N158D],0.452
3,NQKGKYFNVER [ANAPC4_Y469_R465Q],0.667
4,STTIHYNYMCN [TP53_Y234_C229S],1.88
5,FADIAYSYRHG [PAH_Y166_N167S],0.496
6,FSGKAYADEEQ [CRIM1_Y826_R831Q],0.528
7,DTLASYLDKVR [KRT12_Y139_R135T],0.687
8,KDHPDYEFQPR [SOX9_Y172_K173E_YF],0.568
9,ERDYTYDELLN [EIF2S2_Y176_E177D],1.83
10,EQLQSYQAEII [KRT33A_Y268],0.472
11,EARRVYRDIIH [ALDH5A1_Y175_G176R],0.513
12,LLVVVYKYRCY [PSEN1_Y154_L153V],0.829
13,LSGVIYVILGK [PMP22_Y153_R157G],0.653
14,KLFFHYNPKLC [INSR_Y457],0.712
15,LAVNPYGPPDL,0.515
16,AAVDTYCRHNF [HLA-DRB1_Y107_YF],0.529

# Target: Grb2 SH2 (UniProt P62993)
# Test: as above
# Grb2 SH2, sequence (P62993 whole entry, looked up): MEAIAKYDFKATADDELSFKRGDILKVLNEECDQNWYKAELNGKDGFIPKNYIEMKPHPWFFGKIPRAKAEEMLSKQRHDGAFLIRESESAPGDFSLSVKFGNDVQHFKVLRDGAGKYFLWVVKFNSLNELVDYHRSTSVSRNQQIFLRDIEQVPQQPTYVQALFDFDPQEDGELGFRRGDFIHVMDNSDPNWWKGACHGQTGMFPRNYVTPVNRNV
row,Sequence,SH2 binding enrichment
1,SLFPGYNFRFA [P2RX7_Y291_YF],1.24
2,SVTCTYSPALS [TP53_Y126_N131S],0.844
3,LQLLGHRPVYS [CHST6_Y358_Y358H],1.22
4,TTKAKYKTPIY [PLD2_Y573_T577I],0.908
5,DDDPEYRKFLE [UPF3B_Y160],0.834
6,NFHRGYHLQVL [CD200R1L_Y138],0.963
7,SKAYAYVHFDS [PABPC5_Y149_G146A],0.893
8,PTQLPYDHKWK [KIT_Y578_E583K],0.756
9,KNKNRSKNILP [PTPN11_Y279_Y279S],0.777
10,ARMTNCGLPRF [TSPAN12_Y138_Y138C_YF],1.06
11,TRTEAYAVSSF,0.88
12,SHLEDYPFDAE [AKR1B10_Y310_N313D],0.746
13,YVGGFYGGCNE [CTSC_Y352],0.77
14,EEGESYVCSSD [DCX_Y125],1.08
15,EERNPYYSSAR [MCCC2_Y520_G517R],0.963
16,GMEIVYVYVKK [DNAI2_Y5],0.688
17,EYKDAYTFAAD [BRDT_Y335_K336T],0.876

row,Sequence,SH2 binding enrichment
1,PRAGVYPEKDQ [DNM2_Y626_L621P],0.635
2,MSDVPYVMNRG [ACAT1_Y161_N158D],1.11
3,NQKGKYFNVER [ANAPC4_Y469_R465Q],1.15
4,STTIHYNYMCN [TP53_Y234_C229S],0.812
5,FADIAYSYRHG [PAH_Y166_N167S],0.822
6,FSGKAYADEEQ [CRIM1_Y826_R831Q],0.992
7,DTLASYLDKVR [KRT12_Y139_R135T],0.98
8,KDHPDYEFQPR [SOX9_Y172_K173E_YF],0.863
9,ERDYTYDELLN [EIF2S2_Y176_E177D],0.786
10,EQLQSYQAEII [KRT33A_Y268],0.708
11,EARRVYRDIIH [ALDH5A1_Y175_G176R],0.928
12,LLVVVYKYRCY [PSEN1_Y154_L153V],2.16
13,LSGVIYVILGK [PMP22_Y153_R157G],0.746
14,KLFFHYNPKLC [INSR_Y457],1.12
15,LAVNPYGPPDL,0.89
16,AAVDTYCRHNF [HLA-DRB1_Y107_YF],0.912
